T1: human GIP receptor (human, UniProt P48546 22-466)
T1 sequence (looked up): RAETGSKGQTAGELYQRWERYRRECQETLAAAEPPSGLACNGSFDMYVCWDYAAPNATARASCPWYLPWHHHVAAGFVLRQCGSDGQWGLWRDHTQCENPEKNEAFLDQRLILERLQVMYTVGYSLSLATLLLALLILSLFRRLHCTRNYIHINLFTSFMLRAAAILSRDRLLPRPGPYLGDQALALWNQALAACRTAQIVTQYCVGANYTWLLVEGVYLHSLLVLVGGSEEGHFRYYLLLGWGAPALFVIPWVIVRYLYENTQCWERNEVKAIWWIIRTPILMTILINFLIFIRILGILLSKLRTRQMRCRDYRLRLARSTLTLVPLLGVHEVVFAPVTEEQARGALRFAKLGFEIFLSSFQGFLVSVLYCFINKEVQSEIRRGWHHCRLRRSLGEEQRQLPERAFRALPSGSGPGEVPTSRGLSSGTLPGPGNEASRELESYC

T2: human GIP receptor (human, UniProt P48546 22-466)
T2 sequence (looked up): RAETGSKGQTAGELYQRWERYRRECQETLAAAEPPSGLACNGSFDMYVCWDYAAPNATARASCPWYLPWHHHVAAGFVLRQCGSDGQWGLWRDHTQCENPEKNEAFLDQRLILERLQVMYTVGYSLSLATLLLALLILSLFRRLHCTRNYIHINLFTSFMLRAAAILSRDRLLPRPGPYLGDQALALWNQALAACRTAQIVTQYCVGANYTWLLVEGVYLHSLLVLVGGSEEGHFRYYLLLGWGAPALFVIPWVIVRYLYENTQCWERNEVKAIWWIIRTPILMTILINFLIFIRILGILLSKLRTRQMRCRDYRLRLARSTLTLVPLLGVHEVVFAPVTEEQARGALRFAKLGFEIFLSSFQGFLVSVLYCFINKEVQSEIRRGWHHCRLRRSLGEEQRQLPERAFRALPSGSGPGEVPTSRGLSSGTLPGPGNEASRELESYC


Tests used:
Experiment in all cases: cell-based or functional assay
human glucagon receptor = human glucagon receptor (human, UniProt P47871 26-477)
human GIP receptor [1] = biological target: T1, human GIP receptor
human GLP-1 receptor [2] = biological target: human GLP-1 receptor (human, UniProt P43220 24-463)
human GIP receptor [3] = biological target: T2, human GIP receptor; remark: listed apart in the source
human GLP-1 receptor [4] = biological target: human GLP-1 receptor (human, UniProt P43220 24-463); remark: listed apart in the source

| Binder | EC50, cAMP (human glucagon receptor) [nM] | EC50, cAMP (human GIP receptor [1]) [nM] | EC50, cAMP (human GLP-1 receptor [2]) [nM] | cAMP EC50 (1.0% HSA) (human GIP receptor [3]) [nM] | cAMP Emax (1.0% HSA) (human GIP receptor [3]) [%] | cAMP EC50 (1.0% HSA) (human GLP-1 receptor [4]) [nM] | Emax, cAMP (human GLP-1 receptor [2]) [%] |
| --- | --- | --- | --- | --- | --- | --- | --- |
| YXEGTXTSDXSIXLDXKAQXEFIXXLIEGGKSSGAPPPS (Aib2, αMeF(2F)6, 4Pal10, αMeL13, Orn16, Aib20, D-Glu24, αMeY25, K17 and K31: K(AEEA-(εK)-(γ-Glu)-CO-(CH2)12-CO2H), C-terminal NH2) [Example 35] | > 9950 | 0.0162 | 0.612 |  |  |  |  |
| YXEGTXTSDXSIXLDXKAQXEFIXXLIEGGKSSGAPPPS (Aib2, αMeF(2F)6, 4Pal10, αMeL13, Orn16, Aib20, D-Glu24, αMeY25, K17 and K31: K((εK)-AEEA-(γ-Glu)-CO-(CH2)12-CO2H), C-terminal NH2) [Example 36] | > 9950 | 0.0185 | 0.536 |  |  |  |  |
| YXEGTXTSDXSIXLDXKAQXEFIXXLIEGGKSSGAPPPS (Aib2, αMeF(2F)6, 4Pal10, αMeL13, Orn16, Aib20, D-Glu24, αMeY25, K17 and K31: K((εK)-AEEA2-(γ-Glu)-CO-(CH2)12-CO2H), C-terminal NH2) [Example 37] | > 9950 | 0.0211 | 0.909 |  |  |  |  |
| YXEGTXTSDXSIXLDXKAQXEFIXXLIEGGKSSGAPPPS (Aib2, αMeF(2F)6, 4Pal10, αMeL13, Orn16, Aib20, D-Glu24, αMeY25, K17 and K31: K((εK)-(γ-Glu)-CO-(CH2)12-CO2H), C-terminal NH2) [Example 38] | > 9950 | 0.0155 | 0.225 |  |  |  |  |
| YXEGTXTSDXSIXLDXKAQXEFIXXLIEGGKSSGAPPPS (Aib2, αMeF(2F)6, 4Pal10, αMeL13, Orn16, Aib20, D-Glu24, αMeY25, K17 and K31: K((εK)-(γ-Glu)-(γ-Glu)-CO-(CH2)12-CO2H), C-terminal NH2) [Example 39] | > 9950 | 0.0238 | 0.358 |  |  |  |  |
| YXEGTXTSDXSIXLDXKAQXEFIXXLIEGGKSSGAPPPS (Aib2, αMeF(2F)6, 4Pal10, αMeL13, Orn16, Aib20, D-Glu24, αMeY25, K17 and K31: K((εK)-(εK)-(γ-Glu)-CO-(CH2)12-CO2H), C-terminal NH2) [Example 40] | > 9950 | 0.0116 | 0.279 |  |  |  |  |
| YXEGTXTSDXSIXLDXKAQXEFIXXLIEGGKSSGAPPPS (Aib2, αMeF(2F)6, 4Pal10, αMeL13, Orn16, Aib20, D-Glu24, αMeY25, K17 and K31: K((γ-Glu)-AEEA2-CO-(CH2)12-CO2H), C-terminal NH2) [Example 41] | > 9950 | 0.0108 | 0.691 |  |  |  |  |
| YXEGTXTSDXSIXLDXKAQXEFIXXLIEGGKSSGAPPPS (Aib2, αMeF(2F)6, 4Pal10, αMeL13, Orn16, Aib20, D-Glu24, αMeY25, K17 and K31: K((γ-Glu)-AEEA-CO-(CH2)12-CO2H), C-terminal NH2) [Example 42] | > 9950 | 0.0103 | 0.429 |  |  |  |  |
| YXEGTXTSDXSIXLDXKAQXEFIXXLIEGGKSSGAPPPS (Aib2, αMeF(2F)6, 4Pal10, αMeL13, Orn16, Aib20, D-Glu24, αMeY25, K17 and K31: K(AEEA-(γ-Glu)-AEEA-CO-(CH2)12-CO2H), C-terminal NH2) [Example 43] | > 9950 | 0.0123 | 0.821 |  |  |  |  |
| YXEGTXTSDXSIXLDXKAQXEFIXXLIEGGKSSGAPPPS (Aib2, αMeF(2F)6, 4Pal10, αMeL13, Orn16, Aib20, D-Glu24, αMeY25, K17 and K31: K(AEEA2-(γ-Glu)-(4-(4-iodophenyl)butanoyl)), C-terminal NH2) [Example 3] | > 9950 | 0.0133 | 0.223 |  |  |  |  |
| YXEGTXTSDXSIXLDXKAQXEFIXXLIEGGKSSGAPPPS (Aib2, αMeF6, 4Pal10, αMeL13, Orn16, Aib20, D-Glu24, αMeY25, K17 and K31: K(AEEA2-(γ-Glu)-CO-(CH2)12-CO2H), C-terminal NH2) [Example 44] | > 9950 | 0.0637 | 4.77 |  |  |  |  |
| YXEGTXTSDXSIXLDXKAQXEFIXXLIEGGKSSGAPPPS (Aib2, αMeF6, αMeF10, αMeL13, Orn16, Aib20, D-Glu24, αMeY25, K17 and K31: K(AEEA2-(γ-Glu)-CO-(CH2)12-CO2H), C-terminal NH2) [Example 45] | > 9950 | 0.0517 | 9.18 |  |  |  |  |
| YXEGTXTSDXXIXLDXQAQXEFIKXLIKGGPSSGAPPPS (Y-Aib-EGT-αMeF(2F)-TSD-4Pal-Aib-I-αMeL-LD-Orn-QAQ-Aib-EFIK((2-[2-(2-Amino-ethoxy)-ethoxy]-acetyl)2-(γ-Glu)-(10-(4-carboxyphenoxy)decanoyl))-αMeY-LIK((2-[2-(2-Amino-ethoxy)-ethoxy]-acetyl)2-(γ-Glu)-(10-(4-carboxyphenoxy)decanoyl))GGPSSGAPPPS-NH2) [Example 403] |  |  |  | 0.711 | 91.7 | 7.31 |  |
| YXEGTXTSDXXIXLDXQAQXEFIKXLIKGGPSSGAPPPS (Y-Aib-EGT-αMeF(2F)-TSD-4Pal-Aib-I-αMeL-LD-Orn-QAQ-Aib-EFIK((2-[2-(2-Amino-ethoxy)-ethoxy]-acetyl)2-(γ-Glu)-CO-(CH2)12-CO2H)-αMeY-LIK((2-[2-(2-Amino-ethoxy)-ethoxy]-acetyl)2-(γ-Glu)-CO-(CH2)12-CO2H)GGPSSGAPPPS-NH2) [Example 411] |  |  |  | 1.09 |  | 11.4 |  |
| YXEGTXTSDXXIXLDXQAQXEFIKXLIKGGPSSGAPPPS (Y-Aib-EGT-αMeF(2F)-TSD-4Pal-Aib-I-αMeL-LD-Orn-QAQ-Aib-EFIK((2-[2-(2-Amino-ethoxy)-ethoxy]-acetyl)3-(γ-Glu)-CO-(CH2)12-CO2H)-αMeY-LIK((2-[2-(2-Amino-ethoxy)-ethoxy]-acetyl)3-(γ-Glu)-CO-(CH2)12-CO2H)GGPSSGAPPPS-NH2) [Example 460] |  |  |  | 0.506 |  | 6.31 |  |
| YXEGTXTSDXXIXLDXQAQXEFIKXLIKGGPSSGAPPPS (Y-Aib-EGT-αMeF(2F)-TSD-4Pal-Aib-I-αMeL-LD-Orn-QAQ-Aib-EFIK(2-[2-(2-Amino-ethoxy)-ethoxy]-acetyl)3-(γ-Glu)-(10-(4-carboxyphenoxy)decanoyl)-αMeY-LIK((2-[2-(2-Amino-ethoxy)-ethoxy]-acetyl)3-(γ-Glu)-(10-(4-carboxyphenoxy)decanoyl)GGPSSGAPPPS-NH2)) [Example 464] |  |  |  | 0.316 | 95.5 | 4.48 |  |
| YXEGTXTSDXGIXLDXKAQXEFIXXLIEGGKSSGAPPPS (Aib2, αMeF(2F)6, 4Pal10, αMeL13, Orn16, Aib20, D-Glu24, αMeY25, K17 and K31: K(AEEA2-(γ-Glu)-CO-(CH2)12-CO2H), C-terminal NH2) [Example 100] | > 9950 |  | 11.4 |  |  |  | 111 |
| YXEGTXTSDXSIXLDXKGQXEFIXXLIEGGKSSGAPPPS (Aib2, αMeF(2F)6, 4Pal10, αMeL13, Orn16, Aib20, D-Glu24, αMeY25, K17 and K31: K(AEEA2-(γ-Glu)-CO-(CH2)12-CO2H), C-terminal NH2) [Example 102] | > 9950 |  | 19.1 |  |  |  |  |
| YXEGTXTSDXSIXLDXKAQXEFIXXLIEGGKSSGAPPPS (Aib2, αMeF(2F)6, 4Pal10, αMeL13, Orn16, Aib20, D-Glu24, αMeY25, K17 and K31: K(AEEA2-(10-(4-carboxyphenoxy)decanoyl)), C-terminal NH2) [Example 10] | > 9950 | 0.0106 |  |  |  |  |  |
| YXEGTXTSDXSIXLDXKAQXEFIXXLIEGGKSSGAPPPS (Aib2, αMeF(2F)6, Bzt10, αMeL13, Orn16, Aib20, D-Glu24, αMeY25, K17 and K31: K(AEEA2-(γ-Glu)-CO-(CH2)12-CO2H), C-terminal NH2) [Example 142] | > 9950 | 0.0317 |  |  |  |  |  |
